According to publication PMC6689051:
pKd: −log10 of the molar value.

Experiments:
Conditions in all cases: 10 mM Tris-HCl pH 7.5, 50 mM KCl, 10 mM MgCl2 (10.1 mM MgCl2 + 0.1 mM EDTA), 23 C; nitrocellulose filter binding, 2 nM-2 uM Fab, 30 min
[1] = system: Fab HAVx (synthetic (phage display, humanized Fab4D5 framework, YSGRKX library; expressed in E. coli)), PDB:6MWN_2+PDB:6MWN_3; experiment: filter binding
[2] = system: best Fab clone from YSGR library (unnamed) (synthetic (phage display, humanized Fab4D5 framework; expressed in E. coli)); experiment: filter binding
P0 = experiment: method not stated in excerpt

Row | Substance | pKd [1] | pKd [2] | pKd (P0)
1 | GGCAAACAUCAUUUGGCCUUAAAUGGGAUUCUGUGAGACGGGAUCCCUCCAUUGACAGCUGGACUGUUCUUUGGGGCCUUAUGUGGUGUUUG [HAV dV G631C] | 7.24 |  | 
2 | GGCAAACAUCAUUUGGCCUUAAAUGGGAUUCUGUGAGAGGGGAUCCCUCCAUUGACAGCUGGACUGUUCUUUGGGGCCUAUGUGGUGUUUG [HAV dV delU674] | 6.75 |  | 
3 | GGCAAACAUCAUUUGGCCUUAAAUGGGAUUCUGUGAGAGGGGAUCCCUCCAUUGACAGCUGGACUGUUCUUUGGGGCCUUAGUGGUGUUUG [HAV dV delU672] | < 6.00 |  | 
4 | GGCAAACAUCAUUUGGCCUUAAAUGGGAUUCUGUGAGAGGGGAUCCCUCCAUUGACAGCUGGACUGUUCUUUGGGGCCUUAUGUGGUGUUUG [HAV dV (HAV593-684)] | 7.36 | 6.54 | 6.66
5 | HAV593-706 | 7.31 |  | 
6 | HAV593-720 | 7.33 |  | 
